Laboratory results from the RNAGym collection of RNA variant scans (doi:10.1093/nar/gkz1192).

B1: CPEB3 Ribozyme (parent)
chain: UAACAGGGGGCCACAGCAGAAGCGUUCACGUCGCAGCCCCUGUCAGAUUCUGGUGAAUCUGCGAAUUCUGCUGUAUAUCUC

Variants of: B1
Assay: self-cleavage, relative activity (ratio to wild type); higher = more cleavage; in vitro, sequencing
Outline: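 Barcoded CPEB3 ribozyme mutants, produced by rounds of error-prone PCR, self-cleaved while being transcribed with T7 RNA polymerase for 5 hours at 37°C and during a subsequent 15 min DNase I step before EDTA was added. Sequencing of template-switched cDNA on Illumina gave cleaved and total reads, and DNA sequencing assigned barcodes to variants. Each variant's relative activity is its cleaved/total read fraction divided by the unmutated ribozyme's fraction, averaged across three batches. A variant needed a minimum of 5 reads.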

Q: Which self-cleavage does the source give for A28U G42U here?
A: 0.21

Q: Which self-cleavage does the source give for C29G U54C here?
A: 0.24

Q: Which self-cleavage does the source give for C29G U54A here?
A: 0.28

Q: For C29G U78C, which self-cleavage is on record?
A: 0.21

Q: For C29G U31C, which self-cleavage is on record?
A: 0.13

Q: Which self-cleavage does the source give for C29A A65G here?
A: 0.26

Q: With C29A A65U as the variant, how does the self-cleavage read?
A: 0.14

Q: Which self-cleavage does the source give for A28U G61A here?
A: 0.45

Q: Which self-cleavage does the source give for C29G U72C here?
A: 0.26

Q: With A28U A75U as the variant, how does the self-cleavage read?
A: 0.99

Q: With A28U A75G as the variant, how does the self-cleavage read?
A: 0.71

Q: Which self-cleavage does the source give for A28U C68A here?
A: 0.32

Q: With C29G A57G as the variant, how does the self-cleavage read?
A: 0.51

Q: For C29G A47G, which self-cleavage is on record?
A: 0.21

Q: For A28U C50G, which self-cleavage is on record?
A: 0.74

Q: Which self-cleavage does the source give for A28U C50A here?
A: 0.53

Q: With A28U C50U as the variant, how does the self-cleavage read?
A: 0.8

Q: With A28G U72A as the variant, how does the self-cleavage read?
A: 0.3

Q: Which self-cleavage does the source give for A28G U72G here?
A: 0.56

Q: With A28G U72C as the variant, how does the self-cleavage read?
A: 0.67

Q: For C29U U66A, which self-cleavage is on record?
A: 0.22

Q: Which self-cleavage does the source give for C29U U66C here?
A: 0.37

Q: For A28U G46A, which self-cleavage is on record?
A: 0.46

Q: With A28U G46U as the variant, how does the self-cleavage read?
A: 0.14

Q: For C29A U54C, which self-cleavage is on record?
A: 0.45

Q: Which self-cleavage does the source give for C29G here?
A: 0.3

Q: With C29A as the variant, how does the self-cleavage read?
A: 0.44

Q: For C29U, which self-cleavage is on record?
A: 0.51

Q: With C29U C59A as the variant, how does the self-cleavage read?
A: 0.24

Q: Which self-cleavage does the source give for A28U C37U here?
A: 0.41

Q: Which self-cleavage does the source give for A28G U49C here?
A: 0.22

Q: For A28G U49A, which self-cleavage is on record?
A: 0.31

Q: With C29U U48C as the variant, how does the self-cleavage read?
A: 0.25

Q: Which self-cleavage does the source give for C29U U43C here?
A: 0.31

Q: With C29U U43A as the variant, how does the self-cleavage read?
A: 0.53

Q: For C29U U43G, which self-cleavage is on record?
A: 0.48

Q: Which self-cleavage does the source give for G30A A35U here?
A: 0.15

Q: For G30A A35G, which self-cleavage is on record?
A: 0.22

Q: Which self-cleavage does the source give for C29G G73A here?
A: 0.39

Q: With C29G A64G as the variant, how does the self-cleavage read?
A: 0.41

Q: For C29U U74C, which self-cleavage is on record?
A: 0.97

Q: Which self-cleavage does the source give for A28U G53U here?
A: 1

Q: For A28U G53A, which self-cleavage is on record?
A: 0.87

Q: For G30A A45G, which self-cleavage is on record?
A: 0.25

Q: Which self-cleavage does the source give for G30A A45C here?
A: 0.17

Q: For C29A U41C, which self-cleavage is on record?
A: 0.39

Q: Which self-cleavage does the source give for C29A U41G here?
A: 0.43

Q: For C29A U41A, which self-cleavage is on record?
A: 0.37

Q: For C29U U69A, which self-cleavage is on record?
A: 0.3

Q: With C29U U69G as the variant, how does the self-cleavage read?
A: 0.35

Q: For C29U U69C, which self-cleavage is on record?
A: 0.16

Q: For A28G U74A, which self-cleavage is on record?
A: 1.06

Q: For A28G U74C, which self-cleavage is on record?
A: 1

Q: With A28G U74G as the variant, how does the self-cleavage read?
A: 1.08

Q: For C29A C40A, which self-cleavage is on record?
A: 0.17

Q: Which self-cleavage does the source give for C29U C62U here?
A: 0.21

Q: With C29U C62G as the variant, how does the self-cleavage read?
A: 0.24

Q: With C29U A56C as the variant, how does the self-cleavage read?
A: 0.42

Q: With C29U A56G as the variant, how does the self-cleavage read?
A: 0.38

Q: Which self-cleavage does the source give for C29U A56U here?
A: 0.16

Q: With A28U U43A as the variant, how does the self-cleavage read?
A: 1

Q: For A28U U43C, which self-cleavage is on record?
A: 0.41

Q: Which self-cleavage does the source give for A28G U66A here?
A: 0.31

Q: Which self-cleavage does the source give for A28G U66C here?
A: 0.26

Q: With A28G U66G as the variant, how does the self-cleavage read?
A: 0.2

Q: With C29U G42A as the variant, how does the self-cleavage read?
A: 0.21

Q: With C29U G42U as the variant, how does the self-cleavage read?
A: 0.23

Q: For C29G U74C, which self-cleavage is on record?
A: 0.31

Q: For A28U C59A, which self-cleavage is on record?
A: 0.21

Q: Which self-cleavage does the source give for A28U C59U here?
A: 0.34

Q: Which self-cleavage does the source give for C29G U67C here?
A: 0.12

Q: For C29U U76A, which self-cleavage is on record?
A: 0.62

Q: Which self-cleavage does the source give for C29U U76C here?
A: 0.52

Q: Which self-cleavage does the source give for C29A U31A here?
A: 0.3

Q: With C29A U31C as the variant, how does the self-cleavage read?
A: 0.3

Q: For A28G U67G, which self-cleavage is on record?
A: 0.17

Q: For A28G U67A, which self-cleavage is on record?
A: 0.27

Q: With A28G U67C as the variant, how does the self-cleavage read?
A: 0.17

Q: Which self-cleavage does the source give for C29A U80C here?
A: 0.54

Q: For C29U U80C, which self-cleavage is on record?
A: 0.58

Q: With C29U U80A as the variant, how does the self-cleavage read?
A: 0.48

Q: For A28U U74A, which self-cleavage is on record?
A: 1.19

Q: Which self-cleavage does the source give for A28U U74C here?
A: 0.87

Q: For C29A C32A, which self-cleavage is on record?
A: 0.32

Q: Which self-cleavage does the source give for C29A U49A here?
A: 0.45

Q: With C29A U49C as the variant, how does the self-cleavage read?
A: 0.29

Q: For C29A U49G, which self-cleavage is on record?
A: 0.22

Q: Which self-cleavage does the source give for A28U A57U here?
A: 0.5

Q: With A28U A57G as the variant, how does the self-cleavage read?
A: 0.64

Q: Which self-cleavage does the source give for C29U A35C here?
A: 0.25

Q: For C29U A35U, which self-cleavage is on record?
A: 0.22

Q: Which self-cleavage does the source give for C29U A35G here?
A: 1.16

Q: Which self-cleavage does the source give for A28U U60C here?
A: 0.38

Q: Which self-cleavage does the source give for A28U U60G here?
A: 0.16

Q: For A28U U60A, which self-cleavage is on record?
A: 0.26

Q: With C29U U78C as the variant, how does the self-cleavage read?
A: 0.44

Q: For C29U U78A, which self-cleavage is on record?
A: 0.36

Q: For C29U U78G, which self-cleavage is on record?
A: 0.61

Q: Which self-cleavage does the source give for A28U U66C here?
A: 0.37

Q: For A28U U66A, which self-cleavage is on record?
A: 0.31

Q: Which self-cleavage does the source give for A28U U66G here?
A: 0.69

Q: With A28U as the variant, how does the self-cleavage read?
A: 0.81

Q: For A28U U78A, which self-cleavage is on record?
A: 0.51

Q: With A28U U78C as the variant, how does the self-cleavage read?
A: 0.73

Q: With A28U U78G as the variant, how does the self-cleavage read?
A: 0.97

Q: With C29U C38U as the variant, how does the self-cleavage read?
A: 0.16

Q: For A28G U43A, which self-cleavage is on record?
A: 0.86

Q: Which self-cleavage does the source give for A28G U43G here?
A: 0.17

Q: Which self-cleavage does the source give for A28G U43C here?
A: 0.35

Q: With A28U U67A as the variant, how does the self-cleavage read?
A: 0.3

Q: With A28U U67C as the variant, how does the self-cleavage read?
A: 0.27

Q: For A28U U67G, which self-cleavage is on record?
A: 0.2

Q: With C29U C32U as the variant, how does the self-cleavage read?
A: 0.51

Q: For C29A A75G, which self-cleavage is on record?
A: 0.38

Q: Which self-cleavage does the source give for C29G A75G here?
A: 0.21

Q: For A28U G73A, which self-cleavage is on record?
A: 0.99

Q: Which self-cleavage does the source give for A28U G73U here?
A: 1.37

Q: Which self-cleavage does the source give for C29U A77U here?
A: 0.49

Q: For C29U A77C, which self-cleavage is on record?
A: 0.5

Q: With C29U A77G as the variant, how does the self-cleavage read?
A: 0.61

Q: With A28U U48A as the variant, how does the self-cleavage read?
A: 0.38

Q: For A28U U48C, which self-cleavage is on record?
A: 0.42

Q: Which self-cleavage does the source give for A28U A56G here?
A: 0.53

Q: For A28U A56U, which self-cleavage is on record?
A: 0.57

Q: For C29G U41G, which self-cleavage is on record?
A: 0.15

Q: With C29G U41C as the variant, how does the self-cleavage read?
A: 0.2

Q: Which self-cleavage does the source give for C29G U41A here?
A: 0.33

Q: For C29U C44A, which self-cleavage is on record?
A: 0.14

Q: With C29U A57U as the variant, how does the self-cleavage read?
A: 0.2

Q: For C29U A57G, which self-cleavage is on record?
A: 0.41

Q: With A28U U76C as the variant, how does the self-cleavage read?
A: 0.88

Q: Which self-cleavage does the source give for A28U U76A here?
A: 0.87

Q: Which self-cleavage does the source give for A28U U41G here?
A: 0.14

Q: Which self-cleavage does the source give for A28U U41C here?
A: 0.73

Q: For A28U U41A, which self-cleavage is on record?
A: 0.26

Q: For C29U A65G, which self-cleavage is on record?
A: 0.27

Q: For A28U G70A, which self-cleavage is on record?
A: 0.27

Q: Which self-cleavage does the source give for C29G C81A here?
A: 0.3

Q: Which self-cleavage does the source give for C29A G53U here?
A: 0.42

Q: With C29A U66C as the variant, how does the self-cleavage read?
A: 0.29

Q: Which self-cleavage does the source give for C29G U60C here?
A: 0.11

Q: With C29G U60A as the variant, how does the self-cleavage read?
A: 0.29

Q: Which self-cleavage does the source give for C29G A65G here?
A: 0.27

Q: Which self-cleavage does the source give for C29A C59U here?
A: 0.54

Q: With C29U U31A as the variant, how does the self-cleavage read?
A: 0.2

Q: For C29U U31C, which self-cleavage is on record?
A: 0.31

Q: Which self-cleavage does the source give for C29A U67C here?
A: 0.11

Q: For C29A U67A, which self-cleavage is on record?
A: 0.46

Q: Which self-cleavage does the source give for C29A U72C here?
A: 0.31

Q: For C29A U72G, which self-cleavage is on record?
A: 0.18

Q: With A28U C29U as the variant, how does the self-cleavage read?
A: 0.48

Q: With A28U C29G as the variant, how does the self-cleavage read?
A: 0.1

Q: Which self-cleavage does the source give for C29A A35G here?
A: 1.11

Q: For C29A A35U, which self-cleavage is on record?
A: 0.51

Q: Which self-cleavage does the source give for A28U G55A here?
A: 0.59

Q: For A28U A65U, which self-cleavage is on record?
A: 0.33

Q: With A28U A65G as the variant, how does the self-cleavage read?
A: 0.35

Q: Which self-cleavage does the source give for A28U A77G here?
A: 0.8

Q: Which self-cleavage does the source give for A28U A77U here?
A: 0.85

Q: For C29A A45G, which self-cleavage is on record?
A: 0.46

Q: Which self-cleavage does the source give for C29A G63U here?
A: 0.59

Q: For C29A A77G, which self-cleavage is on record?
A: 0.46

Q: For C29A A77U, which self-cleavage is on record?
A: 0.33

Q: For C29U A64C, which self-cleavage is on record?
A: 0.24

Q: For C29U A64G, which self-cleavage is on record?
A: 0.23

Q: Which self-cleavage does the source give for C29U A64U here?
A: 0.25

Q: Which self-cleavage does the source give for C29G U58C here?
A: 0.52
